In general, Kd refers to a measure of binding affinity in units of concentration.

In experiment [1] the target is T1, human SIRPα V1, extracellular domain (human, UniProt P78324 31-373).
T1 construct: also called hSIRPα V1; monomeric human SIRPα
The experiment is described as follows: SPR (BIACORE), antibody captured on chip, monomeric SIRPα ECD as analyte, 1:1 model. On the technique in general: In SPR one partner is held on a chip, and binding of the other changes the refractive index at the surface.
Protocol: (§1) The affinities of these SIRPα antibodies were determined using surface plasmon resonance. The SIRPα antibodies were flowed onto a chip and captured by an anti-human IgG covalently coupled to the surface of the chip. A three-point titration of the extracellular binding domain of hSIRPα was performed per the manufacturer’s recommended protocols.

The target of experiment [2] is T2, cynomolgus monkey SIRPα, extracellular domain (cynomolgus monkey, UniProt A0A2K5VYQ9 31-372).
T2 construct: extracellular domain; Monomeric protein in SPR; also called Cyno SIRPα; monomeric cynomolgus monkey SIRPα
Put plainly: SPR (BIACORE), antibody captured on chip, monomeric SIRPα as analyte, 1:1 model.
Protocol: as §1

Experiment [3] has as its target T3, human SIRPβ1-His monomer protein (human, UniProt O00241 30-371).
T3 construct: also called SIRP-His; monomeric human SIRPβ1; not shown: His tag
Put plainly: BLI (ForteBio Octet), antibody on AMC biosensor, SIRP-His monomer 100/33.3/11.1 nM, 1:1 model, averaged KD. On the technique in general: BLI is a label-free optical method that tracks binding on a fibre tip over time.

Experiment [4] deals with T4, human SIRPα V1-His monomer protein (human, UniProt P78324 31-373).
T4 construct: SIRP-His monomer used as analyte in BLI (Octet); also called SIRP-His; monomeric human SIRPα; not shown: His tag
Described as above.

Experiment [5] concerns the target T1, human SIRPα V1, extracellular domain. The experiment is described as follows: SPR (BIACORE), antibody captured by anti-human IgG, monomeric SIRPα ECD as analyte, 1:1 model.
Protocol: as §1
Experiment [6] concerns the target T2, cynomolgus monkey SIRPα, extracellular …. Put plainly: SPR (BIACORE), antibody captured by anti-human IgG, monomeric SIRPα as analyte, 1:1 model.
Protocol: as §1
Experiment [7] has as its target T5, human SIRPα V2, extracellular domain (human, UniProt P78324 31-373).
T5 construct: also called hSIRPα V2
Put plainly: SPR (BIACORE), antibody captured by anti-human IgG, monomeric SIRPα ECD as analyte, 1:1 model.
Protocol: as §1

Experiment [8] concerns the target T2, cynomolgus monkey SIRPα, extracellular …. Put plainly: SPR (BIACORE), antibody captured, monomeric SIRPα as analyte.

T3 sequence (O00241 30-371 limits assumed): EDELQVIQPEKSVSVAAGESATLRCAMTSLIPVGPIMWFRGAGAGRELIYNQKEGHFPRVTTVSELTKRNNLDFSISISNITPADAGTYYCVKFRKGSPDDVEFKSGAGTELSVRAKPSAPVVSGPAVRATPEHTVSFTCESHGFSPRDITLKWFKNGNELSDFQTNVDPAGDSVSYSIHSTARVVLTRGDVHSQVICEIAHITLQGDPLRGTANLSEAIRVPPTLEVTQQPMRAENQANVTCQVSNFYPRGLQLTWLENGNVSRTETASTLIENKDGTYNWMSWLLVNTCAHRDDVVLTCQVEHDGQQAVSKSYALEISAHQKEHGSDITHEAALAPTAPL

B1: Antibody 6 (antibody, rat IgG2b, V domains shown)
VH: EVQLLESGGGLVQPGGSLRLSCAASGFTLSSYAMSWVRQAPGKGLEWVSISSGSGANTYNADSLKGRFTISRDNSKNTLFLQMNSLRAEDTAVYYCARLRFFDWFDYWGQGALVTVSS
VL: QAVVTQESALTTSPGETVTLTCRSSTGAVTTSNYANWVQEKPDHLFTGLIGGTNNRTPGVPARFSGSLIGDKAALTITGAQTEDEAIYFCALWYSNHWVFGGGTKLTVL
notes: Human variable region with rat IgG2b Fc
For the molecule B1, the dissociation constant (Kd) in experiment [1] turned out to be 4.1 nM; in experiment [2], 56.1 nM; in experiment [3] it was 0.456 nM; in experiment [4], 1.21 nM.

B2: Antibody 27 (antibody, V domains shown)
VH: EVQLLESGGGLVQPGGSLRLSCAASGFTLSSYAMSWVRQAPGKGLEWVSISSGSGANTYNADSLKGRFTISRDNSKNTLFLQMNSLRAEDTAVYYCARLRFFDWFDYWGQGALVTVSS
VL: QAVVTQESALTTSPGETVTLTCRSSTGAVTTSNYANWVQEKPDHLFTGLIGGTNNRTPGVPARFSGSLIGDKAALTITGAQTEDEAIYFCALWYSNHWVFGGGTKLTVL
As to B2, the figures for the dissociation constant Kd in experiment [5] and in experiment [6] were 2 nM and 30.6 nM, respectively.

B3: Antibody 22 (antibody, V domains shown)
VH: EVQLLESGGGLVQPGGSLRLSCAASGFTLSSYAMSWVRQAPGKGLEWVSISSGSGANTYNADSLKGRFTISRDNSKNTLFLQMNSLRAEDTAVYYCARLRFFDWFDYWGQGALVTVSS
VL: QAVVTQESALTTSPGETVTLTCRSSTGAVTTSNYANWVQEKPDHLFTGLIGGTNNRTPGVPARFSGSLIGDKAALTITGAQTEDEAIYFCALWYSNHWVFGGGTKLTVL
notes: Same variable domains as Antibody 6 with human IgG1 Fc
Consider B3, for which the Kd in experiment [5] worked out at 2.59 nM; in experiment [7], 11.5 nM; in experiment [6] it was 35.5 nM.

B4: Antibody 5 (antibody, rat IgG2b, V domains shown)
VH: QVQLVESGGGVVQPGRSLRLSCAASGFTFSNYGMHWVRQAPGKGPEWVAVIWYDGSYKYYGDSVKGRFTISRDNSKNTLYLQMNSLRAEDTAVYYCVRESVGYSSGWSFDYWGQGILVTVSS
VL: DIQMTQSPSTLSASVGDRVTITCRASQSISSWLAWYQQKPGKVPKLLIYKASSLKTGVPSRFSGNGSGTEFTLTISSLQPDDFATYYCQQYNSYSWTFGQGTKVEIK
notes: as for B1
Take B4: the Kd in experiment [4] was determined as 17.3 nM.

B5: Antibody 16 (antibody, mouse IgG2a, V domains shown)
VH: QVQLQQSGAELAKPGASVKMSCKASGYTFTSYWMHWVKQRPGQGLEWIGYIDPSTGYTFHNQKFKDKATLTADKSSTTAYMQLRSLTSEDSAVYYCARRDYGSSFYAMDYWGHGTSITVSS
VL: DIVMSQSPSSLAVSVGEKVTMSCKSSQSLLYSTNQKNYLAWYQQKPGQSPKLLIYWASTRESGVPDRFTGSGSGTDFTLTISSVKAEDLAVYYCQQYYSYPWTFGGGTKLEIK
notes: Mouse IgG2a Fc
For the molecule B5, the dissociation constant (Kd) was determined as 83.9 nM in experiment [3] and 1.21 nM in experiment [4].

B6: Antibody 2 (antibody, V domains shown)
VH: QVQLVQSGAEVKKPGASVKVSCKASGYTFTGYYIFWMRQAPGQGLEWMGWINPNSGGTDYAQKFQGRVTMTMDTSISTAYMELSRLRSDDTAVYYCAREDCTSISCSFDYWGQGTLVTVSS
VL: not shown
notes: as for B1
For the molecule B6, the Kd in experiment [1] is 89.5 nM; in experiment [3], 3620 nM; in experiment [4], 11 nM. Also, in experiment [8], the binding result is “no binding”.

B7: Antibody 19 (antibody, mouse IgG1, V domains shown)
VH: QVQLQQSGAELVRPGASVTLSCKASGYTFTDYEMHWVKQTPVHGLEWIGAIDPETGGTAYNQKFKGKATLTADKSSSTAYMELRSLTSEDSAVYYCTGITRFAYWGQGTLVTVSA
VL: SIVMTQTPKFLLVSAGDRVTITCKASQSVSNDVAWYQQKPGQSPKLLIYYASNRYTGVPDRFTGSGYGTDFTFTISTVQAEDLAVYFCQQDYSSPWTFGGGTKLEIK
notes: Mouse IgG1 Fc
In the case of B7, the dissociation constant (Kd) in experiment [3] was 75.9 nM; in experiment [4], 3.79 nM.

B8: Antibody 17 (antibody, mouse IgG2a, V domains shown)
VH: EVQVVESGGGLVKPGGSLKISCAASGFAFSSYDMSWVRQTPEKRLEWVAYISSGGGSIYYAETVKGRFTISRDNAKNTLYLQMSSLKSEDTAMYYCVRHGYHEYFDVWGAGTTVTVSS
VL: DVLMTQTPLSLPVSLGDQASISCRSSQSIVHSNGNTYLEWYLQKPGQSPKLLIYKVSNRFSGVPDRFSGSGSGTDFTLKISRVEAEDLGVYFCFQGSHFPYTFGGGTKLEIK
notes: Mouse IgG2a Fc
As for B8, the equilibrium dissociation constant (Kd) in experiment [4] is 206 nM.

The record behind these values is patent US20230174648A1 (published 2023).
